Measured values from IntAct's records for PubMed 25281266.

B1: Peregrin (Homo sapiens), P55201 (parent)
chain: MGVDFDVKTFCHNLRATKPPYECPVETCRKVYKSYSGIEYHLYHYDHDNPPPPQQTPLRKHKKKGRQSRPANKQSPSPSEVSQSPGREVMSYAQAQRMVEVDLHGRVHRISIFDNLDVVSEDEEAPEEAPENGSNKENTETPAATPKSGKHKNKEKRKDSNHHHHHNVSASTTPKLPEVVYRELEQDTPDAPPRPTSYYRYIEKSAEELDEEVEYDMDEEDYIWLDIMNERRKTEGVSPIPQEIFEYLMDRLEKESYFESHNKGDPNALVDEDAVCCICNDGECQNSNVILFCDMCNLAVHQECYGVPYIPEGQWLCRRCLQSPSRAVDCALCPNKGGAFKQTDDGRWAHVVCALWIPEVCFANTVFLEPIDSIEHIPPARWKLTCYICKQRGSGACIQCHKANCYTAFHVTCAQQAGLYMKMEPVRETGANGTSFSVRKTAYCDIHTPPGSARRLPALSHSEGEEDEDEEEDEGKGWSSEKVKKAKAKSRIKMKKARKILAEKRAAAPVVSVPCIPPHRLSKITNRLTIQRKSQFMQRLHSYWTLKRQSRNGVPLLRRLQTHLQSQRNCDQVGRDSEDKNWALKEQLKSWQRLRHDLERARLLVELIRKREKLKRETIKVQQIAMEMQLTPFLILLRKTLEQLQEKDTGNIFSEPVPLSEVPDYLDHIKKPMDFFTMKQNLEAYRYLNFDDFEEDFNLIVSNCLKYNAKDTIFYRAAVRLREQGGAVLRQARRQAEKMGIDFETGMHIPHSLAGDEATHHTEDAAEEERLVLLENQKHLPVEEQLKLLLERLDEVNASKQSVGRSRRAKMIKKEMTALRRKLAHQRETGRDGPERHGPSSRGSLTPHPAACDKDGQTDSAAEESSSQETSKGLGPNMSSTPAHEVGRRTSVLFSKKNPKTAGPPKRPGRPPKNRESQMTPSHGGSPVGPPQLPIMSSLRQRKRGRSPRPSSSSDSDSDKSTEDPPMDLPANGFSGGNQPVKKSFLVYRNDCSLPRSSSDSESSSSSSSSAASDRTSTTPSKQGRGKPSFSRGTFPEDSSEDTSGTENEAYSVGTGRGVGHSMVRKSLGRGAGWLSEDEDSPLDALDLVWAKCRGYPSYPALIIDPKMPREGMFHHGVPIPVPPLEVLKLGEQMTQEAREHLYLVLFFDNKRTWQWLPRTKLVPLGVNQDLDKEKMLEGRKSNIRKSVQIAYHRALQHRSKVQGEQSSETSDSD

Variants of: B1
Details: with h2a1_human H2AC11, P0C0S8

Variant | effect of a mutation on the interaction
I713A | decreasing interaction

Variants of: B1
Details: with h4_human H4C16, P62805

Variant | effect of a mutation on the interaction
I713A | decreasing interaction

Variants of: B1
Details: with h2a1_human H2AC11, P0C0S8
Remark: another data set of the same source

Variant | effect of a mutation on the interaction
F714A | disrupting interaction

Variants of: B1
Details: with h4_human H4C16, P62805
Remark: another data set of the same source

Variant | effect of a mutation on the interaction
F714A | disrupting interaction

Variants of: B1
Details: with h2a1_human H2AC11, P0C0S8
Remark: another data set of the same source

Variant | effect of a mutation on the interaction
E661A | decreasing interaction

Variants of: B1
Details: with h4_human H4C16, P62805
Remark: another data set of the same source

Variant | effect of a mutation on the interaction
E661A | decreasing interaction

Variants of: B1
Details: with h2a1_human H2AC11, P0C0S8
Remark: another data set of the same source

Variant | effect of a mutation on the interaction
A709S | decreasing interaction

Variants of: B1
Details: with h4_human H4C16, P62805
Remark: another data set of the same source

Variant | effect of a mutation on the interaction
A709S | decreasing interaction

Variants of: B1
Details: with h2a1_human H2AC11, P0C0S8
Remark: another data set of the same source

Variant | effect of a mutation on the interaction
C704A | decreasing interaction

Variants of: B1
Details: with h4_human H4C16, P62805
Remark: another data set of the same source

Variant | effect of a mutation on the interaction
C704A | decreasing interaction

Variants of: B1
Details: with h2a1_human H2AC11, P0C0S8
Remark: another data set of the same source

Variant | effect of a mutation on the interaction
N708A | disrupting interaction

Variants of: B1
Details: with h4_human H4C16, P62805
Remark: another data set of the same source

Variant | effect of a mutation on the interaction
N708A | disrupting interaction
